Measured values as given in patent US20110262444A1.

Target: rabbit polyclonal antibodies for Peptide 2 (CRNGDD, SEQ ID NO: 2)
Assay: Western blot, inhibition of H6D antibody binding to CRNGDD-BSA by free peptide, 10 µg peptide/µl antiserum

- percent inhibition: 81%
B1: CRNGDD (SEQ ID NO: 2) peptide, free (peptide)
peptide: CRNGDD
